For test [1], the target named is T1, human δ opioid receptor (human, UniProt P41143 1-372).
T1 construct: whole, on cells; membrane preparations of the transfected cells were used; also called hDOR; DOR
The test is described as follows: competition vs [3H]DPDPE, hDOR cell membranes.

Test [2] addresses T2, rat NK1 receptor (rat, UniProt P14600 1-407).
T2 construct: whole, on cells; membrane preparations of the transfected cells were used; also called rNK1; rNK-1
Nature of the test: competition vs [3H]Substance P, rNK1 CHO cell membranes.

Test [3] has as its target T3, human NK1 receptor (human, UniProt P25103 1-407).
T3 construct: whole, on cells; membrane preparations of the transfected cells were used; also called hNK1; human neurokinin-1 receptor
Nature of the test: competition vs [3H]Substance P, hNK1 CHO cell membranes.

Test [4] has as its target T2, rat NK1 receptor. The test is described as follows: competition vs [3H]Substance P, rNK1 CHO cell membranes. The source holds these as a separate data set.
For test [5], the target named is T1, human δ opioid receptor. Nature of the test: competition vs [3H]DPDPE, hDOR cell membranes. This is another data set of the same source.
Test [6] addresses guinea pig NK1 receptor (guinea pig, UniProt P30547 1-407). Nature of the test: cell-based or functional assay.
Test [7] addresses µ opioid receptor of the guinea pig isolated ileum (guinea pig, UniProt P97266 1-98). Nature of the test: cell-based or functional assay.
The target of test [8] is T3, human NK1 receptor. Nature of the test: competition vs [3H]Substance P, hNK1 CHO cell membranes. The source holds these as a separate data set.
The target of test [9] is T4, rat µ opioid receptor (rat, UniProt P33535 1-398).
T4 construct: whole, on cells; membrane preparations of the transfected cells were used; also called rMOR; MOR
T4 sequence (P33535 whole entry): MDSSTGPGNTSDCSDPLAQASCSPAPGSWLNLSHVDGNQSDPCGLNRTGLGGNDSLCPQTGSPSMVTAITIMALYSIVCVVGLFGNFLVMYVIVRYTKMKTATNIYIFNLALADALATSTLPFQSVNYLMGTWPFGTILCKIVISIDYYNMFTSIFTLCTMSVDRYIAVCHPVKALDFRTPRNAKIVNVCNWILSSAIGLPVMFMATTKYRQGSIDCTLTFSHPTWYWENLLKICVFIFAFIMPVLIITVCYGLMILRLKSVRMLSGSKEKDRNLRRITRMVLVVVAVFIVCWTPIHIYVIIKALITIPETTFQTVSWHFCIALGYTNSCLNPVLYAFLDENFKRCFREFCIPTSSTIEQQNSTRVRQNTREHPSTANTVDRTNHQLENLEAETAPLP
The test is described as follows: competition vs [3H]DAMGO, rMOR cell membranes.

For test [10], the target named is T1, human δ opioid receptor. The test is described as follows: competition vs [3H]DPDPE, hDOR cell membranes. This is another data set of the same source.
Test [11] has as its target T3, human NK1 receptor. Nature of the test: competition vs [3H]Substance P, hNK1 CHO cell membranes. This is another data set of the same source.
Test [12] concerns the target T4, rat µ opioid receptor. Nature of the test: cell-based or functional assay.
In test [13] the target is T1, human δ opioid receptor. The test is described as follows: cell-based or functional assay.
The target of test [14] is T2, rat NK1 receptor. The test is described as follows: competition vs [3H]Substance P, rNK1 CHO cell membranes. This is another data set of the same source.

Like-named read-outs stand apart in the source and are kept apart here. Square brackets hold non-standard residues; d marks the D form. Ends that are not written are not given here. * marks the point of attachment. NH(3,5-(CF3)2-benzyl) = FC(F)(F)c1cc(CN*)cc(C(F)(F)F)c1; OBzl(3,5-(CF3)2) = FC(F)(F)c1cc(CO*)cc(C(F)(F)F)c1; Dmt = Cc1cc(O)cc(C)c1C[C@H](N)C(=O)O

One may read the Ki as the equilibrium dissociation constant of an inhibitor or competing ligand from its target. Low readings indicate a stronger hold on the target, high ones a looser hold on the target.

T1 sequence (P41143 whole entry, stated change not applied): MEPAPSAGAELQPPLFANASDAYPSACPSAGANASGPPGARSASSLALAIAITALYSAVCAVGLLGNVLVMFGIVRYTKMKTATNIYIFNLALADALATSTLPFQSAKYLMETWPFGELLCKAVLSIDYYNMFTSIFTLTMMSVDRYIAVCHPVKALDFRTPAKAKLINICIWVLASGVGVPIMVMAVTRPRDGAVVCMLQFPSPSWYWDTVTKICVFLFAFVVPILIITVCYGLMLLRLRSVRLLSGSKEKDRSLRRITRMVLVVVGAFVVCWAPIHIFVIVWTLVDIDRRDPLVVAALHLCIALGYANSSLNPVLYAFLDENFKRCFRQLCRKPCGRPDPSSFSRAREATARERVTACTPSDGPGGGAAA
T2 sequence (P14600 whole entry): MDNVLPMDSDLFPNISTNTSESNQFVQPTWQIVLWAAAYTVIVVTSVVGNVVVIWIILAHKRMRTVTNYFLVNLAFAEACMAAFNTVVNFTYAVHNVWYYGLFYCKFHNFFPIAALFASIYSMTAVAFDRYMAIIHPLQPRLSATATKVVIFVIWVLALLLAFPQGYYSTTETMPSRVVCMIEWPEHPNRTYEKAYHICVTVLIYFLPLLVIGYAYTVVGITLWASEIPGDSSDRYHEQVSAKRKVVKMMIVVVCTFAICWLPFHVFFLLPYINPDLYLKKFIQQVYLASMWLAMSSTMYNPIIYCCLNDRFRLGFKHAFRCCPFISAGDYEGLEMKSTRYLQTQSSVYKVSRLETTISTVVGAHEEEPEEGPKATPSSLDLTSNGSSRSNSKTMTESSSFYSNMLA
T3 sequence (P25103 whole entry): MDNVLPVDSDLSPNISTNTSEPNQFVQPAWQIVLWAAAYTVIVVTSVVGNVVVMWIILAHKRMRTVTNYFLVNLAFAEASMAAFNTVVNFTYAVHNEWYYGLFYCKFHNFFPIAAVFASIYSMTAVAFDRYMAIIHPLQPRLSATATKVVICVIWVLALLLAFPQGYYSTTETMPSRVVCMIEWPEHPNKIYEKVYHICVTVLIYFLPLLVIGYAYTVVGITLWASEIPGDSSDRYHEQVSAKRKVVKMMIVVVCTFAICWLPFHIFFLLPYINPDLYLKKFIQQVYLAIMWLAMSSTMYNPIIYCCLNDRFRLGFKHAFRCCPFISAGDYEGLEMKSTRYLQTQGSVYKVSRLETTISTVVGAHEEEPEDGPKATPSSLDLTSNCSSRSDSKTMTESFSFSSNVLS
Sequence of µ opioid receptor of the guinea pig isolated ileum (P97266 whole entry): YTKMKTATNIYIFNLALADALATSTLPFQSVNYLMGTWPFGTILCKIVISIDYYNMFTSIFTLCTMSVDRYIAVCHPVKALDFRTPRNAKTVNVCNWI
Sequence of guinea pig NK1 receptor (P30547 whole entry): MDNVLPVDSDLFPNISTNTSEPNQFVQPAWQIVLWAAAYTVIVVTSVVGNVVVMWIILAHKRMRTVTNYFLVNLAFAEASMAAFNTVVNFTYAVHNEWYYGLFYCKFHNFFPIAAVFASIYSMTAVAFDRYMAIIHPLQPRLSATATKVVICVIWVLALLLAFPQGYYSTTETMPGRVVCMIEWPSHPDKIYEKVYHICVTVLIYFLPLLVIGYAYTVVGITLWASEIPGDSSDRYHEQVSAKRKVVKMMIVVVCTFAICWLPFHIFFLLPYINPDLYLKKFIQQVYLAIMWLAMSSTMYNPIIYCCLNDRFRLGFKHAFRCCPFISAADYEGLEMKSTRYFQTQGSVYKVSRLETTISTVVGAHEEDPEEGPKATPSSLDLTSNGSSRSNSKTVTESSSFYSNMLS

Take [Dmt][dA]GFMPLW-{NH(3,5-(CF3)2-benzyl)} (also called TY032) [DmtDAlaGlyPheMetProLeuTrpNHBn(CF3)2]: the Ki in test [1] stood at 0.12 nM; in [2] it was 2.3 nM; in test [3], 7.9 pM; in test [4], 2.3 nM; in test [5] it was 0.12 nM; in test [8], 7.9 pM. In addition, the “GPI/LMMP Substance P antagonist Ke” value in test [6] was determined as 7.5 nM. In addition, the “GPI/LMMP IC50” value in [7] is 18.6 nM.
Take Y[dA]GW-{OBzl(3,5-(CF3)2)} (also called NP44) [Tyr-D-Ala-Gly-Trp-O-3′,5′(CF3)2-Bzl]: the inhibition constant Ki in test [9] was determined as 48.5 nM; in test [10], 306 nM; in [11], 0.03 nM; in test [14] it was 3.4 nM. Also, the “GTP EC50” value in [12] was 22.9 nM; in test [13], 280 nM.

These data come from US8026218 (UNIVERSITY OF ARIZONA, dated 2011).
